Test results taken from the RNAGym collection of RNA variant scans (doi:10.1073/pnas.2313332121).
Variants at the floor of the assay were thinned out.

B1: TPR 5TU (parent)
chain: GGAUCUUCUCGAUCUAACAAAAAAGACAAAUCUGCCACAAAGCUUGAGAGCAUCUUCGGAUGCAGAGGCGGCAGCCUUCGGUGGCGCGAUAGCGCCAACGUUCUCAACUAUGACACGCAAAACGCGUGCUCCGUUGAAUGGAGUUUAUCAUG

Variants of: B1
Test: polymerase ribozyme fitness, log enrichment relative to wild type (log ratio); higher = more active; in vitro selection for triplet polymerase activity
Summary of the method: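 After PCR construction and transcription, each subunit's mutant library from a heterodimeric triplet polymerase ribozyme was annealed with a biotinylated primer, the partner subunit and triplets. Incubation was frozen, at −7 °C, and extended constructs were gel-excised, bound to streptavidin beads and amplified by RT-PCR, in one selection round done in triplicate. Fitness is the logarithm of a genotype's enrichment divided by that of the wild type, from inverse-variance-weighted replicate averages of Illumina-sequenced inputs and outputs. The base of the logarithm is 2, and genotypes needed ≥10 input reads and ≥1 read per output.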

Variant	polymerase ribozyme fitness (log ratio)
GGAUCUUCUCGAUCUAACAAAAAAGACAAAUCUGCCACAAAGCUUGAGAGCAACUUCGGAUGCAGAGGCGGCAGCCUUCGGUGGCGCGAUAGCGCUAACGUUCUGAACUAUCACACGCAAAACGCGUGCUCCGUUGAAUGGAGUUCAUCAUG [U53A C96U C105G G112C U146C]	≤ -4.2
GGAUCUUCUCGAUCUAACAAAAAAGACAAAUCUGCCACAAAGCUUGAGAGCAACUUCGGAUGCAGAGGCGGCAGCCUUCGGUGGCGCGAUAGCGCCAACGUUCUCAACUAUGACACGGAAAACGCGUGCUCCGUUGAAUGGAGCUUAUCAUG [U53A C118G U144C]	-1.81
GGAUCUUCUCGAUCUAACAAAAAAGACAAAUCUGCCACAAAGCUUGAGAGCAACUUCGGAUGCAGAGGCGGCAGUCUUCGGUGGUGCGAUAGCGCCAACGUUCUCAACUAUGACACGCAAAAUGAGUGCUCCGUUGAAUGGAGUUUAUCAUG [U53A C75U C85U C123U C125A]	-2.32
GGAUCUUCUCGAUCUAACAAAAAAGACAAAUCUGCCACAAAGCUUGAGAGCAACUUCGGAUGCAGAGGCGGCAGCCUUCGGUGGCGCGAUAGCGCCAACGUUCUCAACUAUGACACGCAAAAUGCGUGCUCCGUUGAAUGGAGUUUAUCAUG [U53A C123U]	-0.0861
GGAUCUUCUCGAUCUAACAAAAAAGACAAAUCUGCCACAAAGCUUGAGAGCAACUUCGGAUGCAGAGGCGGCAGCCUUCGGUGGCGCGAUAGUGCCAACGUUCUCAACUAUGACACGCAAAACGCGUGCUCCGUUGAAUCGAGUUUAUCAUG [U53A C93U G140C]	≤ -4.2
GGAUCUUCUCGAUCUAACAAAAAAGACAAAUCUGCCACAAAGCUUGAGAGCAACUUCGGAUGCAGAGGCGGCAGCUUUCGGUAGCGCGAUAGCGCCAACGUUCUCAACUAUGACACGCAAAACGCGUGCUCCGUUGAAUGGAGUUUAUCAUG [U53A C76U G83A]	-1.6
GGAUCUUCUCGAUCUAACAAAAAAGACAAAUCUGCCACAAAGCUUGAGAGCAACUUCGGAUGCAGAGGCGGCAGCCUUCGGUGGCGCGAUAGCGACAACGUUCUCAACUAUGACACGCAAAACGUGUGCUCCGUUGAAUGGAGUUUAUCAUG [U53A C95A C125U]	-1.7
GGAUCUUCUCGAUCUAACAAAAAAGACAAAUCUGCCACAAAGCUUGAGAGCAACUUCGGAUGCAGAGGCGGCAGCCUUCGGUGGCGCGAUAGUGCCAACGUUCUCAACUAUGACACGCAAAACGCGUGCGCCGUUGAAUGGAGUUUAUCAUG [U53A C93U U130G]	≤ -4.2
GGAUCUUCUCGAUCUAACAAAAAAGACAAAUCUGCCACAAAGCUUGAGAGCAACUUCGGAUGCAGAGGCGGCAGCCUUCGGUGGCGCGAUAGCGUCAACGUUCUCAACUAUGACACGCAAAACGCGUGCUCCGUUGAAUGGAGUUUAUCAUG [U53A C95U]	-0.368
GGAUCUUCUCGAUCUAACAAAAAAGACAAAUCUGCCACAAAGCUUGAGAGCAACUUCGGAUGCAGAGGCGGCAGCCUUCGGUGGCGCGAUAGCGCCAAUGUUCUCAACUAUGACAUGCAAAACGCGUGCUCCGUUGAAUGGAGUUUAUCAUG [U53A C99U C116U]	-1.7
GGAUCUUCUCGAUCUAACAAAAAAGACAAAUCUGCCACAAAGCUUGAGAGCAACUUCGGAUGUAGAGGUGGCAGCCUUCGGUGGCGCGAUAGCGCCAACGUUCUCAACUAUGACACGCAAAUCGCGUGCUCCGUUGAAUGGAGUUUAUCAUG [U53A C63U C69U A122U]	-3.99
GGAUCUUCUCGAUCUAACAAAAAAGACAAAUCUGCCACAAAGCUUGAGAGCAACUUCGGAUGCAGAGGCGGCAGCCUUAGGUGGCGCGAUAGCGCCAACGUUCUCAACUAUGACACGCAAAACGCGUGCUCCGUUGAAUGGAGUUUAUCUUG [U53A C79A A150U]	≤ -4.2
GGAUCUUCUCGAUCUAACAAAAAAGACAAAUCUGCCACAAAGCUUGAGAGCAACUUCGGAUGCAGAGGCGGCAGCCUUCGGUGGCGCGAUAGCGCAAACGUUCUCAACUAUGACACGCAAAACGCGUGGUCCGUUGAAUGGAGUUUAUCAUG [U53A C96A C129G]	-3.82
GGAUCUUCUCGAUCUAACAAAAAAGACAAAUCUGCCACAAAGCUUGAGAGCAACUUCGGAUGCAGAGGCGGCAGCGUUCGGUGGCGCGAUAGCGCCAACGUUCUCAACUAUGACACGCAAAACGCGUGCUCCGUUGAAUGGAGUUUAUCAUG [U53A C76G]	≤ -4.2
GGAUCUUCUCGAUCUAACAAAAAAGACAAAUCUGCCACAAAGCUUGAGAGCAACUUCGGAUGCAGAGGCGGCAGCAUUCGGUGGCGCGAUAGCGCCAACGUUCUCAACUAUGACACGCAAAACGCGUGCUCCGUUGAAUGGAGUUUAUCAUG [U53A C76A]	-2.19
GGAUCUUCUCGAUCUAACAAAAAAGACAAAUCUGCCACAAAGCUUGAGAGCAACUUCGGAUGCAGAGGCGGCAGUCUUCGGUGGCGCCAUAGCGCCAACGUUCUCAACUAUGACACGCAAAACGCGUGCUCCGUUGAAUGGAGUUUAUCAUG [U53A C75U G88C]	≤ -4.2
GGAUCUUCUCGAUCUAACAAAAAAGACAAAUCUGCCACAAAGCUUGAGAGCAACUUCGGAUGCAGAGGCGGCAGUCUUCGGUGGCGCGAUAGCGCCAACGUUCUCAACUAUGACACGCAAAACGCGUGCUCCGUUGAAUGGAGUUUAUCAUG [U53A C75U]	-1.34
GGAUCUUCUCGAUCUAACAAAAAAGACAAAUCUGCCACAAAGCUUGAGAGCAACUUCGGAUGCAGAGGCGGCAGGUUUCGGAGGCGCGAUAGCGUCAACGUUCUCAACUAUGACACGCAAAACGCGUACUCCGUUGAAUGGAGUUUAUCAUG [U53A C75G C76U U82A C95U G128A]	≤ -4.2
GGAUCUUCUCGAUCUAACAAAAAAGACAAAUCUGCCACAAAGCUUGAGAGCAACUUCGGAUGCAGAGGCGGCAGCCUUCGGUGGCGCGAUAGCGCUAAUGUUCUCAACUAUGACACGCAAAACGCGUGCUCCGUUGAAUGGACUUUAUCAUG [U53A C96U C99U G143C]	≤ -4.2
